In test [1] the target is T1, glycosylated human PAI-1 (active form) (human, UniProt P05121 24-402, glycosylated (sites not given)). The test can be described thus: cell-based or functional assay.
For test [2], the target named is T1, glycosylated human PAI-1 (active form). Kind of test: Biacore 2000, mAb captured, single-cycle kinetics. (SPR reads the build-up and loss of mass on a sensor chip optically.)
Test [3] shares this target. Kind of test: cell-based or functional assay. This is another data set of the same source.
In test [4] the target is T2, endogenous human PAI-1 (human, UniProt P05121 24-402). The test can be described thus: cell-based or functional assay.
The target in test [5] is T1, glycosylated human PAI-1 (active form). The test can be described thus: cell-based or functional assay. The source holds these as a separate data set.
The target of test [6] is T3, human PAI-1 (human, UniProt P05121 24-402).
T3 construct: serpin; also called hPAI-1
The test can be described thus: Biacore supernatant screen, graded off-rate.

Test [7] has as its target T1, glycosylated human PAI-1 (active form). The test can be described thus: cell-based or functional assay. The source holds these as a separate data set.
Test [8] addresses T4, cynomolgus PAI-1 (cynomolgus (Macaca fascicularis), UniProt P05121 24-402 (human entry)).
T4 construct: produced in-house in E. coli; latent conformation in the crystal; also called cyno PAI-1; cPAI-1
The test can be described thus: value used to set up the HDX MS samples.

Test [9] has as its target T4, cynomolgus PAI-1. Kind of test: cell-based or functional assay.
Test [10] deals with T3, human PAI-1. Kind of test: cell-based or functional assay.
Test [11] has as its target T2, endogenous human PAI-1. The test can be described thus: cell-based or functional assay. This is another data set of the same source.
For test [12], the target named is T2, endogenous human PAI-1. The test can be described thus: cell-based or functional assay. This is another data set of the same source.

Substitutions are numbered along the chain they refer to. “And” between values parts separate entries of the source, which are not always exact repeats. Equal values may be shown once. Read-outs that look alike come from different tables or passages of the source.

B1: C45 (antibody, mouse IgG2b, V domains shown)
VH: QVQLQQSGVELVRPGTSVKVSCKASGYAFTNYLIEWIKQRPGQGLEWIGVIHPGSGVTNYNEKFKGKAILTADKSSSTAYMQLSSLTSDDSAVYFCARDYYGSSHGLMDYWGQGTSVTVSS
VL: DIKMTQSPSSMYASLGERVTITCKASQDINSYLSWFQQKPGKSPKTLIYRANRLVDGVPSRFSGSGSGQDYSLTISSLEYEDMGIYYCLQYDEFPRTFGGGTKLEIK
Take B1: in [1], the “plasmin generation, IC50abs” value was found to be 6.5 nM and the “plasmin generation, Imax” value was 97%.

B2: APG (antibody, V domains shown)
VH: QVKLQESGPELVKPGASVKISCKASGYSFTDYNMNWVKQSKGKSLEWIGIIHPNSGTTTYNQKFKGKATLTVDQSSSTAYLQLNSLTSEDSAVYYCARSKLRFFDYWGQGTTVTVSS
VL: B1 VL with M4L, N30Y, V55I, D82H, R96F, G100S
notes: mouse antibody; also called mAPG; mouse APG
For B2, the kon in [2] came out at 3.82e+06 M⁻¹ s⁻¹. In addition, in test [3], the “human plasma clot lysis IC50” value was determined as 2.34 nM and the “human plasma clot lysis Imax @ 100 nM” value was 123%. In addition, in the test with endogenous human PAI-1 [4], the “human plasma, uPA-PAI-1 ELISA IC50abs” value turned out to be 1.81 nM and the “human plasma, uPA-PAI-1 ELISA Imax” value came out at 89.7%.

B3: E16 (antibody, mouse IgG1, V domains shown)
VH: EVKLVESGGGLVKPGGSLKLSCAASGFTFSNYGMSWVRQTPEKGLGWVASLRTGGNTYYSDSVKGRFTISRDNDRNILYLQMSSLTSEDTAVYYCARGLRHWGYFDVWGAGTTVTVSS
VL: DIVMTQSHKFMSTSVGDRVNITCKASQDVSTAVGWYQQEPGQSPKLLIYSASNRHTGVPDRFTGSGSGTDFTFTISSVQAEDLAVYYCQQHYSSPWTFGGGTKLEIK
As for B3, in [1], the “plasmin generation, IC50abs” value came out at 4.74 nM and the “plasmin generation, Imax” value was 95%.

B4: B109 (antibody)
chain 1: SGQGLDWIGAIYPGNSDTTYNQKFEDKAKLTAVASASTAYMEVSSLTNEDSAVYYCTRGLRRWGAMDYWGQGTSVTVSS
chain 2: DIVMTQSHKFMSTSAGDRVSIPCKASQDVSSAVAWYQQKLGQSPKLLIYSASFRYTGVPDRFTGSGSGTDFTFTISSVQAEDLAVYYCQQHYSSPYTFGGGTNLEIK
On to B4, for which the “Chromogenic Assays” value in [5] turned out to be 0.23 nM. This molecule also had an off-rate constant (koff) with human PAI-1 [6] of at most 0.0001 s⁻¹. Further, in [1], the “plasmin generation, IC50abs” value was determined as 6.11 nM and the “plasmin generation, Imax” value stood at 94%.

B5: A71 (antibody, mouse IgG1, V domains shown)
VH: QVQLQQSGAELMKPGASVKISCKATGFTFSTYWIEWIKQRPGHGLDWIGEILPGSGNTNYNEKFKGKATFTADTSSNTVYMQLSSLTSEDSAVYYCARGGLYYNLDSWGQGTTLTVSS
VL: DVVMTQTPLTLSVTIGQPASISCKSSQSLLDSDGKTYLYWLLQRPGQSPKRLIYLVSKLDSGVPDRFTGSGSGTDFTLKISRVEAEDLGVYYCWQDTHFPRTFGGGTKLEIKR
Take B5: in test [1], the “plasmin generation, IC50abs” value was 8.61 nM and the “plasmin generation, Imax” value came out at 90%.

B6: A105 (antibody, mouse IgG1, V domains shown)
VH: B5 VH with T31I, I37V, H43L, D46E, N57S, V79A, Y80F, N104D, S107Y, T113I
VL: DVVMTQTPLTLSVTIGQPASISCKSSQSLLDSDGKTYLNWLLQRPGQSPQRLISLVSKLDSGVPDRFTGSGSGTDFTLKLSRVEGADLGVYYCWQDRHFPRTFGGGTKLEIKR
Regarding B6, in [1], the “plasmin generation, IC50abs” value was determined as 27 nM and the “plasmin generation, Imax” value was found to be 88%.

B7: B28 (antibody, mouse IgG2b, V domains shown)
VH: QVQLQQSGAELMKPGASVKISCKATGYTFSISWIEWIKQRPGGLEWIGKILPGSGGANYNEKFKGKATVTADTSSNTVYMQLSSLTSEDSAVYYCARLSTGTRGAFDYWGQGTTLTVSS
VL: DIQLTQSPASLSASVGATVTITCRASENVYSYLAWYQQKQGKSPQLLVYNAKTLAEGVPSRFSGSGSGTQFSLKINYLQPEDFGSYYCQHHYGTPPTFGGGTKVEIKR
B7: in test [1], the “plasmin generation, IC50abs” value was 7.28 nM and the “plasmin generation, Imax” value is 90%.

B8: A44-hv11 (antibody, V domains shown)
VH: QMTLKESGPTLVKPTQTLSLTCSVSGDSMTNGYWNWIRQFPGKALEYMGYITYSGSTYYNPSLKGRITITRDTSKNQYYLTLSSVTTVDTATYYCARWHYGSPYYFDYWGQGTTLTVSS
VL: DIKMTQSPSSLSASVGDRVTITCKASQDINSYLSWLQQKPGKSPKTLIYRAQRSVEGVPSRFSGSGSGQDYSLTISSLQPEDLGIYYCLQYDEFPPTFGGGTKLEIK
notes: constant regions only as pictures; also called A44V11; A44v11
For the molecule B8, the “human plasma clot lysis IC50” value in test [7] was 2 nM. In test [3], the “human plasma clot lysis IC50” value is 1.38 nM and the “human plasma clot lysis Imax @ 100 nM” value came to 113%. In addition, in the test with cynomolgus PAI-1 [8], the Kd is under 0.05 nM. Also, in the test with cynomolgus PAI-1 [9], the “Cyno PAI-1 neutralization IC50” value came to 0.0424 nM and the “Cyno PAI-1 neutralization Y50%” value came to 50.8%. Moreover, in the test with human PAI-1 [10], the “uPA-PAI-1 complex ELISA IC50” value came out at 0.131 nM and the “uPA-PAI-1 complex ELISA Y50%” value came to 50.8%. Also, in the test with endogenous human PAI-1 [11], the “uPA-PAI-1 complex ELISA IC50” value came out at 0.0157 nM and the “uPA-PAI-1 complex ELISA Y50%” value is 37.5%. Moreover, in the test with endogenous human PAI-1 [12], the “human liver lysate, uPA-PAI-1 ELISA IC50” value was 0.0365 nM and 0.0503 nM and 0.0465 nM; the “human liver lysate, uPA-PAI-1 ELISA IC50, mean” value worked out at 0.0444 nM.

B9: A44-hv13 (antibody, V domains shown)
VH: QMQLQESGPGLVKPSETLSLTCTVSGDSMTNGYWNWIRQPPGKGLEYMGYITYSGSTYYNPSLKSRITISRDTSKNQYSLKLSSVTAADTAVYYCARWHYGSPYYFDYWGQGTLVTVSS
VL: B8 VL
B9: in the test with cynomolgus PAI-1 [9], the “Cyno PAI-1 neutralization IC50” value was found to be 0.0281 nM and the “Cyno PAI-1 neutralization Y50%” value is 52.8%. Also, in the test with human PAI-1 [10], the “uPA-PAI-1 complex ELISA IC50” value was 0.166 nM and the “uPA-PAI-1 complex ELISA Y50%” value came out at 52.8%. In addition, in the test with endogenous human PAI-1 [11], the “uPA-PAI-1 complex ELISA IC50” value amounted to 0.0311 nM and the “uPA-PAI-1 complex ELISA Y50%” value is 61.4%.

B10: A44-hv14 (antibody, V domains shown)
VH: B9 VH
VL: B8 VL with G84A, I85T
For the molecule B10, in the test with cynomolgus PAI-1 [9], the “Cyno PAI-1 neutralization IC50” value amounted to 0.0287 nM and the “Cyno PAI-1 neutralization Y50%” value is 52.5%. Further, in the test with human PAI-1 [10], the “uPA-PAI-1 complex ELISA IC50” value came to 0.0563 nM and the “uPA-PAI-1 complex ELISA Y50%” value amounted to 52.5%. Besides, in the test with endogenous human PAI-1 [11], the “uPA-PAI-1 complex ELISA IC50” value was 0.0586 nM and the “uPA-PAI-1 complex ELISA Y50%” value amounted to 73.9%.

B11: A44-hv12 (antibody, V domains shown)
VH: B8 VH
VL: B8 VL with G84A, I85T
In the case of B11, in the test with cynomolgus PAI-1 [9], the “Cyno PAI-1 neutralization IC50” value was 0.0266 nM and the “Cyno PAI-1 neutralization Y50%” value worked out at 53.5%. Also, in the test with human PAI-1 [10], the “uPA-PAI-1 complex ELISA IC50” value came to 0.114 nM and the “uPA-PAI-1 complex ELISA Y50%” value is 53.5%. In the test with endogenous human PAI-1 [11], the “uPA-PAI-1 complex ELISA IC50” value amounted to 0.00335 nM and the “uPA-PAI-1 complex ELISA Y50%” value is 37.7%.

B12: A44 (antibody, mouse IgG1, V domains shown)
VH: EMQLQESGPSLVKPSQTLSLTCSVTGDSMTNGYWNWIRKFPGNKLEYMGYITYSGSTYYNPSLKGRISITRNTSKNQYYLQLSSVTTEDTATYYCARWHYGSPYYFDYWGQGTTLTVSS
VL: DIKMTQSPSSMYASLGERVTITCKASQDINSYLSWLQQKPGKSPKTLIYRANRSVDGVPSRFSGSGSGQDYSLTISSLEYEDMGIYYCLQYDEFPPTFGGGTKLEIKR
As to B12, in test [1], the “plasmin generation, IC50abs” value was 3.32 nM and the “plasmin generation, Imax” value stood at 97%.

B13: APGv2 (antibody, V domains shown)
VH: QVQLVQSGSELKKPGASVKVSCKASGYSFTDYNMNWVRQAPGQGLEWIGIIHPNSGTTTYNQKFKGRAVLSVDQSVSTAYLQISSLKAEDTAVYYCARSKLRFFDYWGQGTLVTVSS
VL: DIQLTQSPSSLSASVGDRVTITCKASQDIYSYLSWFQQKPGKAPKTLIYRANRLIDGVPSRFSGSGSGQDYTFTISSLQPEDIATYYCLQYDEFPFTFGQGTKLEIK
notes: humanized; also called APG variant 2
In [2], B13 came in with a kon of 6.58e+06 M⁻¹ s⁻¹. Moreover, in [3], the “human plasma clot lysis IC50” value was 2.08 nM and the “human plasma clot lysis Imax @ 100 nM” value is 114%. In the test with cynomolgus PAI-1 [8], the Kd is under 0.05 nM. For the same molecule, in the test with endogenous human PAI-1 [4], the “human plasma, uPA-PAI-1 ELISA IC50abs” value was determined as 0.962 nM and the “human plasma, uPA-PAI-1 ELISA Imax” value came to 94.5%.

B14: APGv4 (antibody, V domains shown)
VH: B13 VH with S9A, L11V, V69T, S71T, V76T, L81M, Q82E, I83L, K87R, A88S
VL: B13 VL
notes: humanized; also called APG variant 4
Consider B14, for which the kon in test [2] came out at 9.48e+06 M⁻¹ s⁻¹. Further, in test [3], the “human plasma clot lysis IC50” value came out at 2.82 nM and the “human plasma clot lysis Imax @ 100 nM” value was 116%. Moreover, in the test with endogenous human PAI-1 [4], the “human plasma, uPA-PAI-1 ELISA IC50abs” value amounted to 1.28 nM and the “human plasma, uPA-PAI-1 ELISA Imax” value was 94.4%.

As usually defined, the kon is the second-order rate constant of association. A lower kon goes with slow association. Broadly, the koff is the rate constant with which the complex falls apart. By Kd is commonly meant a measure of binding affinity in units of concentration. Read a high Kd as lower affinity.

The record behind these values is patent publication EP3620472A1 (Sanofi, dated 2020).
